# Source: patent publication US7038020 (ZLB BIOPLASMA, dated 2006)
# Residue numbers refer to the chain shown, from its start.
# T1: Rhesus D antigen (human, UniProt Q02161 2-417)
# T1 construct: whole, on cells; R1R1 cells also carry C and e; also called RhD; on rbc R1R1 (CDe/CDe, CCDDee)
# T1 sequence (looked up): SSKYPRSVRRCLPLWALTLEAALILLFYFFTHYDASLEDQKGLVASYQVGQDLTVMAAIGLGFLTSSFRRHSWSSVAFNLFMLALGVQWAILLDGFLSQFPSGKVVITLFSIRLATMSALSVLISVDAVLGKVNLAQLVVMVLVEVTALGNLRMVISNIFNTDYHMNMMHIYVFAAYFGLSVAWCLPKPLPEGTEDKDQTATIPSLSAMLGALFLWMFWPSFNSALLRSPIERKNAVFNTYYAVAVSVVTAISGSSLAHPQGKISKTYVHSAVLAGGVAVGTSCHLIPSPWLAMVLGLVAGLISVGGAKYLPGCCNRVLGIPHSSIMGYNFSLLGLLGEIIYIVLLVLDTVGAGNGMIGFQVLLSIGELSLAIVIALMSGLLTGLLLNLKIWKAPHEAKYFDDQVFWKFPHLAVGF
# T2: Rhesus negative rbc, phenotype ccddee (Rhesus c and e antigens, no D) (human, UniProt P18577 2-417)
# T2 construct: whole, on cells; the thing tested is the whole red cell; also called rr
# T2 sequence (looked up): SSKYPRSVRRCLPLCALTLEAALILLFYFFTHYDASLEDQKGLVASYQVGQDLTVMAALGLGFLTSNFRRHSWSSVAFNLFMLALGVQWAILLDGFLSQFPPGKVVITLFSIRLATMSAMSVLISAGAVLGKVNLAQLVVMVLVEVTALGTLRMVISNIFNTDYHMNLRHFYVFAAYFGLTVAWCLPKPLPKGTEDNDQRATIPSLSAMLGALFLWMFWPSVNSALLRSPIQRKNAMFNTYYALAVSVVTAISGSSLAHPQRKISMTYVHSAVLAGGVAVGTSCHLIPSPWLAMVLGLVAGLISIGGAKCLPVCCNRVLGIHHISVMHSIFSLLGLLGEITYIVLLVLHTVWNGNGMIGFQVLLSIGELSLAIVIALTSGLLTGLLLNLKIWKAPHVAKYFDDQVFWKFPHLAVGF
# B1: Fab clone LD2-17 (Fab, V domains shown)
# VH: QVKLLESGGGVVQPGGSLRLSCVASGFTFRSYGMHWVRQAPGKGLEWVAFIWFDGSNKGYVDSVKGRFTISRDNSKNTLYLQMKSLRAEDTAVYYCAREKALRGISRYNYYLDVWGKGTTVTVSS
# VL: VMTQSPFSLSASVGDRVTITCRASQNIRSFLSWYQQKPGTAPKLLIYAASRLQSGVPSRFSGSGSGTDFTLTISTLQPEDFATYYCQQSYSAPWTFGQGTKLEIK
# notes: human soluble Fab from pComb3 in E. coli
# B2: Fab clone LD2-5 (Fab, V domains shown)
# VH: B1 VH with V11L, T78M, K84N, T119A
# VL: VMTQSPSSLSASIGDRVTITCRASQSVTRSLNWYQQKPGKAPRLLIFAASTLQSGVPSRFSGSGSGTDFTLTISSLQPEDFGTYYCQQNYRTPQWTFGQGTKVEIK
# notes: as for B1
# B3: Fab clone LD2-20 (Fab, V domains shown)
# VH: B1 VH with F29S
# VL: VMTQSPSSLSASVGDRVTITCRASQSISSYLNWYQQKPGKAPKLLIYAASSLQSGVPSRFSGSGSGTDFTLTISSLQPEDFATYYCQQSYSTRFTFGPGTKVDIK
# notes: as for B1
# B4: Fab clone LD1-117 (Fab, V domains shown)
# VH: QVKLLESGGGVVQPGKSLRLSCAASGFSFNSHGMHWVRQAPGKGLEWVAFIWFDGSNKYYADSVKGRFTITRDNSKNTLYLQMNSLRAEDTAVYYCARETSVRLGYSRYNYYMDVWGKGTTVTISS
# VL: VMTQSPSSLSASVGDRVTITCRASQSIRSHLNWYQQKPGKAPKLLIYAASSLQGGVPSRFSGSGSGTDFTLTISSLQPEDFATYYCQQSYRAPQWTFGQGTKVEIK
# notes: as for B1
# B5: Fab clone LD1-40 (Fab, V domains shown)
# VH: QVKLLESGGGVVQPGRSLRLSCIASGFTLRNYAMHWVRQAPGKGLEWVAGIWFDGSNKNYADSVKGRFTISRDNSKNTLYLQLNSLRDEDTAVYYCARERAARGISRFYYYMDVWGKGTTVTVSP
# VL: VMTQSPSSLSASVGDRVTITCRASQSIRSHLNWYQQKPGKAPKLLIYGASTLQSGVPSRFSGSGSGAVFTLTIASLQPEDFATYYCQESYSNPLITFGQGTRLETK
# notes: as for B1
# B6: Fab clone LD1-110 (Fab, V domains shown)
# VH: B5 VH with Y80F, Q82H, L83M, D88A, V93T, A102I, F108Y, Y109N, P125S
# VL: VMTQSPSSLSASVGDRVTITCRASQSIRSSLNWYQQKPGKAPKVLIYAASSLQSGVPSRFSGRGSGTDFTLTISSLQPEDFATYYCQQSSSSSWTFGQGTKVEIK
# notes: as for B1
# B7: Fab clone LD2-11 (Fab, V domains shown)
# VH: QVKLLESGGGVVQPGGSLRLSCEASGFTLRSSGMHWVRQAPGKGLEWVALIWFDGSIRSYAESVKGRFTISRDTSKNTLYLQMRSLSADDTAVYYCARDKAVRGISRYNYYMDVWGKGTTVTVSS
# VL: VLTQSPSSLSASIRDRVTITCRASQNIGSYLNWYQHKPGTAPKLLIYAVSALQSGVPSRFSGSRSGTDFTLTISSLQPEDFATYYCQQSYSPPYTFGQGTNLQIK
# notes: as for B1
# B8: Fab clone LD1-52 (Fab, V domains shown)
# VH: B7 VH with T28A
# VL: VMTQSPSSLSASVGDRVTITCRASQNIIRYLNWYQQKPGKAPRLLIYGASTLQSGVPSRFSGSGSGTDFTLTISSLQPEDFATYYCQQSYRTPPFTFGPGTKVEIK
# notes: as for B1
# B9: Fab clone LD2-4 (Fab, V domains shown)
# VH: B7 VH
# VL: VMTQSPSSLSASVGDRVTITCRTSQTISRNLNWYQQKPGKAPKLLIYATSSLQSGVPSRFSGSGSGTDFTLTINSLQPEDFATYYCQQSYTTPSFGQGTKVEIK
# notes: as for B1
# B10: Fab clone LD1-84 (Fab, V domains shown)
# VH: B7 VH
# VL: VMTQSPSSLSASIGDRVTITCRASQSIIRYLNWYQHKPGKAPKLLIFAASNLQTGVPSRFSGSGSGTDFTLTISDLQPEDFATYYCQQSYSRPFTFGRGTSLDIK
# notes: as for B1
# B11: Fab clone LD1/2-6-3 (Fab, V domains shown)
# VH: QVKLLESGGGVVQPGGSLRVACVASGFTFRNFGMHWVRQAPGKGLEWVAFIWFDASNKGYGDSVKGRFTVSRDNSKNTLYLQMNGLRAEDTAVYYCAREKAVRGISRYNYYMDVWGKGTTVTVSS
# VL: VMTQSPSSLSASVGDRVTITCRASQSIIRYLNWYQHKPGKAPKLLIHTASSLQSGVPSRFSGSVSGTDFTLTISSLQPEDFATYYCQQSYTTPYTFGQGTKLQIK
# B12: Fab clone LD1/2-6-33 (Fab, V domains shown)
# VH: B11 VH
# VL: B11 VL with S8F, T48A
# B13: Fab clone LD2-14 (Fab, V domains shown)
# VH: B11 VH
# VL: VMTQSPSSLSASVGDRVTITCRASQSIINNLNWYQQKPGKAPELLIYAASSLQSGVPSRFRGSGSGRDFTLTVTSLQPEDFATYYCQQSYSTLWTFGQGTKVEIK
# notes: as for B1
# Target: T1, Rhesus D antigen
# Assay: haemagglutination, rbc
row,Binder,binding result
1,B1,binds
2,B2,binds
3,B3,binds
4,B4,binds
5,B5,binds
6,B6,binds
7,B7,binds
8,B8,binds
9,B9,binds
10,B10,binds

# Target: T1, Rhesus D antigen
# Assay: indirect haemagglutination, rbc CCDDee
row,Binder,binding result
1,B11,binds
2,B12,binds

# Target: T2, Rhesus negative rbc, phenotype ccddee …
# Assay: indirect haemagglutination, rbc ccddee
row,Binder,binding result
1,B11,no binding
2,B12,no binding

# Target: T2, Rhesus negative rbc, phenotype ccddee …
# Assay: indirect haemagglutination, Fab fragment, rbc rr
row,Binder,binding result
1,B13,no binding

# Target: T1, Rhesus D antigen
# Assay: indirect haemagglutination, Fab fragment, rbc R1R1
row,Binder,binding result
1,B13,binds
